Assay [1] addresses T1, Grb2 SH2 domain (UniProt P62993 60-152, limits assumed).
T1 construct: domain: SH2 domain
Description: fluorescence anisotropy, direct binding of the FAM-labeled ligand to the Grb2 SH2 domain.

The target of assay [2] is T2, Kelch-like ECH-associated protein-1 (Keap1) (UniProt Q14145 321-609, limits assumed). The experiment in a line: fluorescence anisotropy competition assay, displacement of the fluorescent Nrf2 peptide from Keap1. The protocol: (§1) The percentage of inhibition was calculated from the fluorescence anisotropy decrease by using equation
T2 sequence (Q14145 321-609 limits assumed): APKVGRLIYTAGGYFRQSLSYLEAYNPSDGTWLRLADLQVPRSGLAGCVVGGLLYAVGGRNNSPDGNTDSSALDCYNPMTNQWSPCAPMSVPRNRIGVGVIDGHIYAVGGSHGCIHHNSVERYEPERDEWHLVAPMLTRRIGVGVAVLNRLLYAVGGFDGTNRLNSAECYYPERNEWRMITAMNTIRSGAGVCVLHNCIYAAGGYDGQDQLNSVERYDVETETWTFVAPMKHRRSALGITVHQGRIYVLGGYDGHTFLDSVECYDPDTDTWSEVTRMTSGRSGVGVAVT
(§2) and plotted against the inhibitor concentration.
On the technique in general: Fluorescence polarisation rises when a labelled molecule tumbles more slowly, as on binding a larger partner.

Assay [3] concerns the target T2, Kelch-like ECH-associated protein-1 …. The experiment in a line: fluorescence anisotropy competition assay; reference BH17. The protocol: as §1, §2
The target is the same in assay [4]. The experiment in a line: fluorescence anisotropy competition assay; reference BH15. How it is done: as §1, §2
The target is the same in assay [5]. Description: fluorescence anisotropy competition assay; reference BH13. How it is done:
as §1, §2

In assay [6] the target is T1, Grb2 SH2 domain. Description: FP-based competition assay, unlabeled peptide against the FAM-labeled reporter ligand on the Grb2 SH2 domain.
Assay [7] addresses T2, Kelch-like ECH-associated protein-1 …. The experiment in a line: fluorescence anisotropy competition assay; reference peptide not named (34-fold matches BH17, […] nM). How it is done:
as §1, §2

Assay [8] addresses T1, Grb2 SH2 domain. Description: binding to the Grb2 SH2 domain; assay not named, presumably the same FP competition assay.
Assay [9] deals with T1, Grb2 SH2 domain. Description: binding to the Grb2 SH2 domain; reference BH23.

Square brackets hold non-standard residues; d marks the D form. Pmp = N[C@@H](Cc1ccc(CP(=O)(O)O)cc1)C(=O)O; pY = N[C@@H](Cc1ccc(OP(=O)(O)O)cc1)C(=O)O; 2Nal = N[C@@H](Cc1ccc2ccccc2c1)C(=O)O

In general, Kd refers to the constant that tells how readily two partners part at equilibrium. Broadly, the IC50 is the point on the concentration scale where inhibition reaches its midpoint. Lower therefore signals greater potency in that assay.

T1 sequence (P62993 60-152 limits assumed): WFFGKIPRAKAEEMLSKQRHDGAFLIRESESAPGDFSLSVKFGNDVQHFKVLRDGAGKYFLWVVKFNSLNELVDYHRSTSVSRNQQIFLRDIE

cyclo(AApYVNFFQ)-β-Ala-K(FAM) (peptide) came in with an equilibrium dissociation constant (Kd) in [1] of 92 nM.

B1: BH18 (peptide)
peptide: cyclo(F[2Nal][dR][dP]PRRFLNAETGE)
SMILES: CC(C)C[C@@H]1NC(=O)[C@H](Cc2ccccc2)NC(=O)[C@H](CCCNC(=N)N)NC(=O)[C@H](CCCNC(=N)N)NC(=O)[C@@H]2CCCN2C(=O)[C@H]2CCCN2C(=O)[C@@H](CCCNC(=N)N)NC(=O)[C@H](Cc2ccc3ccccc3c2)NC(=O)[C@H](Cc2ccccc2)NC(=O)[C@H](CCC(=O)O)NC(=O)CNC(=O)[C@H]([C@@H](C)O)NC(=O)[C@H](CCC(=O)O)NC(=O)[C@H](C)NC(=O)[C@H](CC(N)=O)NC1=O
notes: also called cyclo(F-Φ-r-p-P-R-R-F-L-N-A-E-T-G-E)
Molecule B1 showed an IC50 in [2] of 1400 nM. In assay [3], the “fold decrease in affinity vs BH17” value is about 10 fold.

B2: BH13 (peptide)
peptide: cyclo(FF[2Nal][dR][dP]PRRFQLDPETGE)
SMILES: CC(C)C[C@@H]1NC(=O)[C@H](CCC(N)=O)NC(=O)[C@H](Cc2ccccc2)NC(=O)[C@H](CCCNC(=N)N)NC(=O)[C@H](CCCNC(=N)N)NC(=O)[C@@H]2CCCN2C(=O)[C@H]2CCCN2C(=O)[C@@H](CCCNC(=N)N)NC(=O)[C@H](Cc2ccc3ccccc3c2)NC(=O)[C@H](Cc2ccccc2)NC(=O)[C@H](Cc2ccccc2)NC(=O)[C@H](CCC(=O)O)NC(=O)CNC(=O)[C@H]([C@@H](C)O)NC(=O)[C@H](CCC(=O)O)NC(=O)[C@@H]2CCCN2C(=O)[C@H](CC(=O)O)NC1=O
notes: The underlining is not visible, so the entry may be only part of the peptide; also called cyclo(F-F-Φ-r-p-P-R-R-F-Q-L-D-P-E-T-G-E)
For B2, the IC50 in assay [2] was 153 nM.

B3: BH16 (peptide)
peptide: cyclo(FF[2Nal][dR][dP]PRRFLNAETGE)
SMILES: CC(C)C[C@@H]1NC(=O)[C@H](Cc2ccccc2)NC(=O)[C@H](CCCNC(=N)N)NC(=O)[C@H](CCCNC(=N)N)NC(=O)[C@@H]2CCCN2C(=O)[C@H]2CCCN2C(=O)[C@@H](CCCNC(=N)N)NC(=O)[C@H](Cc2ccc3ccccc3c2)NC(=O)[C@H](Cc2ccccc2)NC(=O)[C@H](Cc2ccccc2)NC(=O)[C@H](CCC(=O)O)NC(=O)CNC(=O)[C@H]([C@@H](C)O)NC(=O)[C@H](CCC(=O)O)NC(=O)[C@H](C)NC(=O)[C@H](CC(N)=O)NC1=O
notes: also called cyclo(F-F-Φ-r-p-P-R-R-F-L-N-A-E-T-G-E)
In turn, B3 came in with an IC50 in assay [2] of 1470 nM. In addition, in assay [4], the “fold decrease in affinity vs BH15” value is about 10 fold.

B4: BH14 (peptide)
peptide: cyclo(FF[2Nal][dR][dP]PRRFQLNAETGE)
SMILES: CC(C)C[C@@H]1NC(=O)[C@H](CCC(N)=O)NC(=O)[C@H](Cc2ccccc2)NC(=O)[C@H](CCCNC(=N)N)NC(=O)[C@H](CCCNC(=N)N)NC(=O)[C@@H]2CCCN2C(=O)[C@H]2CCCN2C(=O)[C@@H](CCCNC(=N)N)NC(=O)[C@H](Cc2ccc3ccccc3c2)NC(=O)[C@H](Cc2ccccc2)NC(=O)[C@H](Cc2ccccc2)NC(=O)[C@H](CCC(=O)O)NC(=O)CNC(=O)[C@H]([C@@H](C)O)NC(=O)[C@H](CCC(=O)O)NC(=O)[C@H](C)NC(=O)[C@H](CC(N)=O)NC1=O
notes: also called cyclo(F-F-Φ-r-p-P-R-R-F-Q-L-N-A-E-T-G-E)
Consider B4, for which the IC50 in assay [2] amounted to 1400 nM. Besides, the “fold decrease in affinity vs BH13” value in [5] is about 10 fold.

B5: BH25 (peptide)
peptide: cyclo(FA[dA][dP]PRR[pY]VN)
SMILES: CC(C)[C@@H]1NC(=O)[C@H](Cc2ccc(OP(=O)(O)O)cc2)NC(=O)[C@H](CCCNC(=N)N)NC(=O)[C@H](CCCNC(=N)N)NC(=O)[C@@H]2CCCN2C(=O)[C@H]2CCCN2C(=O)[C@@H](C)NC(=O)[C@H](C)NC(=O)[C@H](Cc2ccccc2)NC(=O)[C@H](CC(N)=O)NC1=O
notes: Control peptide: the Nal-arg of BH23 is replaced with Ala-ala; also called cyclo[F-A-a-p-P-R-R-pY-V-N); negative control peptide BH25
In assay [6], B5 displayed a half-inhibitory concentration (IC50) of 100 nM.

B6: BH19 (peptide)
peptide: cyclo(F[2Nal][dR][dP]PRRFNAETGE)
SMILES: C[C@@H]1NC(=O)[C@H](CC(N)=O)NC(=O)[C@H](Cc2ccccc2)NC(=O)[C@H](CCCNC(=N)N)NC(=O)[C@H](CCCNC(=N)N)NC(=O)[C@@H]2CCCN2C(=O)[C@H]2CCCN2C(=O)[C@@H](CCCNC(=N)N)NC(=O)[C@H](Cc2ccc3ccccc3c2)NC(=O)[C@H](Cc2ccccc2)NC(=O)[C@H](CCC(=O)O)NC(=O)CNC(=O)[C@H]([C@@H](C)O)NC(=O)[C@H](CCC(=O)O)NC1=O
notes: also called cyclo(F-Φ-r-p-P-R-R-F-N-A-E-T-G-E)
For B6, the half-inhibitory concentration (IC50) in assay [2] worked out at 5540 nM. The “fold reduction in inhibition potency” value in assay [7] was 34 fold.

B7: BH26 (peptide)
peptide: cyclo(F[2Nal][dR][dP]PRR[Pmp]VN)
SMILES: CC(C)[C@@H]1NC(=O)[C@H](Cc2ccc(CP(=O)(O)O)cc2)NC(=O)[C@H](CCCNC(=N)N)NC(=O)[C@H](CCCNC(=N)N)NC(=O)[C@@H]2CCCN2C(=O)[C@H]2CCCN2C(=O)[C@@H](CCCNC(=N)N)NC(=O)[C@H](Cc2ccc3ccccc3c2)NC(=O)[C@H](Cc2ccccc2)NC(=O)[C@H](CC(N)=O)NC1=O
In [8], B7 registered a concentration for half-maximal inhibition (IC50) of 1370 nM. The “fold less potent than BH23” value in [9] was about 3 fold.

B8: BH23 (peptide)
peptide: cyclo(F[2Nal][dR][dP]PRR[pY]VN)
notes: also called cyclo(pY-V-N-F-Φ-r-p-P-R-R); cyclo[F-Φ-r-p-P-R-R-pY-V-N)
With B8, the IC50 in [6] amounted to 400 nM.

(Values after patent publication US20190284240A1 (OHIO STATE INNOVATION FOUNDATION, published 2019).)
